# In patent US20240141038A1 (SHANGHAI QILU PHARMACEUTICAL RESEARCH AND DEVELOPMENT CENTRE, published 2024):
# Where a chain is given by its changes, count along the chain named. Where two headings read alike, the source gives them in different places.
# B1: H1-PC11 humanized antibody (antibody, human IgG1, V domains shown)
# VH: EVQLVESGGGLVQPGGSLRLSCAASPYSANSFSMAWFRQAPGKGLEGVACIQAESGSTNVAPSVKGRFTISQDNSKNTLYLQMNSLRAEDTAVYYCAAFKRNVGGCELRPEHWRFWGQGTLVTVSS
# notes: not shown: constant region of human IgG1
# B2: H2-PC11 humanized antibody (antibody, human IgG1, V domains shown)
# VH: B1 VH with A24P, V48I
# notes: as for B1
# B3: H3-PC11 humanized antibody (antibody, human IgG1, V domains shown)
# VH: B1 VH with L45R
# notes: as for B1
# B4: H2-PA27 humanized antibody (antibody, human IgG1, V domains shown)
# VH: QVQLVESGGGVVQPGRSLRLSCAASGRTESWYRMGWFRQAPGKGLEVVARISGDTNIKYYAGSVKGRFTISRDNSKNTLYLQMSSLRAEDTAVYYCAADRTGATWDYWGQGTLVTVSS
# notes: as for B1
# B5: H4-PA27 humanized antibody (antibody, human IgG1, V domains shown)
# VH: B4 VH with Q1D, L45R
# notes: as for B1
# B6: H2-PA31 humanized antibody (antibody, human IgG1, V domains shown)
# VH: EVQLVESGGGLVQPGGSLRLSCAVSGRTFSRLPMGWFRQAPGKGLEFVAAISWSSSTTYYADSVKGRFTISRDNSKNTAYLQMNSLRAEDTAVYYCAAVGGSLDYSATVVYTAARAYADWGQGTLVTVSS
# notes: as for B1
# B7: H2-PA45 humanized antibody (antibody, V domains shown)
# VH: EVQLVESGGGLVQPGGSLRLSCAASGRTFSRLPMAWFRQAPGKGLEFVAAISWSGGSTYYADSMKGRFTISRDNSKNTAYLQMNSLRAEDTAVYYCAAVGDSAPYSATIVYTDARAYAYWGQGTLVTVSS
# notes: as for B1
# B8: H4-PA31 humanized antibody (antibody, human IgG1, V domains shown)
# VH: B6 VH with G44D, L45R
# notes: as for B1
# B9: H4-PA45 humanized antibody (antibody, V domains shown)
# VH: B7 VH with G44D, L45R
# notes: as for B1
# Tests used:
# [1] = target: T1, human NKp46 (full length, on cells) (human, UniProt O76036 22-304); assay: flow cytometry on human NKp46-CHOK1 cells
# T1 sequence (O76036 22-304 Q82K): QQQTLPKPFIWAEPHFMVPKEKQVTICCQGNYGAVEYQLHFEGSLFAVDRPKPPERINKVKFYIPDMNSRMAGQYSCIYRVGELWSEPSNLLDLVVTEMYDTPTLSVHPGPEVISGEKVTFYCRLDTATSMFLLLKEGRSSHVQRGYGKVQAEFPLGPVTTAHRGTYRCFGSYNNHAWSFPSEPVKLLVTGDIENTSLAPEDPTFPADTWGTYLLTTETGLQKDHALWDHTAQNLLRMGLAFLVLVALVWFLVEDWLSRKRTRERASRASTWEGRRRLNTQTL
# Experimental: (§1) The stable human NKp46-CHOK1 and cynomolgus monkey NKp46-CHOK1 cell lines obtained in Example 2 were cultured, the cells were digested with 0.25% pancreatic enzyme EDTA for about 5 minutes, and the digestion was terminated with the complete medium. After centrifugation at 1,500 rpm for 5 minutes, the supernatant was discarded, the precipitated cells were resuspended with PBS containing 1% BSA and counted. The cell density was adjusted to 1E6/mL and seeded in a corning-3799 96-well culture plate at 100 μL/well. Aftering centrifuging at 1,500 rpm for 5 minutes, the supernatant was discarded and the precipitate was set aside at 4° C. The antibody solutions were prepared with PBS containing 1% BSA, wherein the antibody solution has an initial concentration was 100 nM, then diluted in 10-fold to obtain 7 gradients: 10⁻⁴ nM, 10⁻³ nM, 10⁻² nM, 10⁻¹ nM, […], and 10² nM. The prepared antibody solutions were used to resuspend the cells, 100 μL/well. The resuspended cell culture plates were incubated in a 4° C. freezer for 1 h. After centrifugation at 1500 rpm for 5 minutes, the supernatant was discarded. The precipitate was washed with 160 μL of PBS containing 1% BSA, the supernatant was discarded, and the cells were stored for later use.
# (§2) The Secondary antibody (goat anti human IgG Fc PE) solution was prepared with PBS containing 1% BSA, and diluted 1:200. The cells were resuspended with the prepared secondary antibody solution, 100 μL/well, incubated in a 4° C. freezer for 0.5 h. After centrifugation at 1,500 rpm for 5 minutes, the supernatant was discarded, the precipitated cells were washed with 160 μL of PBS containing 1% BSA, the supernatant was discarded, the cells were resuspended with 100 μL of PBS containing 1% BSA, and filtered in 300-mesh gauze. The mean fluorescence intensity of antibody binding to cells was then analyzed on a flow cytometer. The FCS file was exported from the flow cytometer, the mean fluorescence intensity (hereinafter referred to as MFI) of PE channel was analyzed with Flowjo software, and the mean fluorescence intensity obtained was introduced into the Graphpad to analyze the half binding concentration (hereinafter referred to as EC₅₀) and the top mean fluorescence intensity (Top MFI) of the antibody and the cell.
# [2] = target: cynomolgus monkey NKp46 (full length, on cells) (cynomolgus monkey) (UniProt Q95JB9); assay: flow cytometry on cynomolgus monkey NKp46-CHOK1 cells
# Chain of cynomolgus monkey NKp46 (full length, on cells) (cynomolgus monkey) (Q95JB9 22-306): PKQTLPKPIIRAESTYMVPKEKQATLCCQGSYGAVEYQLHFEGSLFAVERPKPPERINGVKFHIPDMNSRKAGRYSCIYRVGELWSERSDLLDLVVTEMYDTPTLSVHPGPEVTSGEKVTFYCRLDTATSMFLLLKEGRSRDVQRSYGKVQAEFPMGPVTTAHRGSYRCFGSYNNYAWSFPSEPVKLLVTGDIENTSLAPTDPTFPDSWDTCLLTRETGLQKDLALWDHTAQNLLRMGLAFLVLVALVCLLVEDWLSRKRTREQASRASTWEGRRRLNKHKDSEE
# [3] = target: cynomolgus monkey NKp46 (full length, on cells) (cynomolgus monkey) (UniProt Q95JB9); assay: as above; remark: listed apart in the source
# [4] = target: T1, human NKp46 (full length, on cells); assay: cell-based or functional assay
# [5] = target: T2, cynomolgus monkey NKp46 (full length, on cells) (cynomolgus monkey, UniProt Q95JB9 22-306); assay: flow cytometry on cynomolgus monkey NKp46-CHOK1 cells
# T2 construct: also called cynomolgus monkey NKp46-CHOK1; cynomolgus NKp46-CHOK1
# T2 sequence (Q95JB9 22-306): as above
# Experimental: as §1, §2
# [6] = target: T3, Human NKp46 antigen for immunization, screening, and testing (Kactus, NKP-HM146) (human, UniProt O76036 22-255); assay: SPR (Biacore 8K), antibody captured on anti-human Fc, NKp46 as analyte, 1:1 fit
# T3 construct: Bought protein; also called human NKp46 antigen protein; human NKp46 protein
# T3 sequence (O76036 other isoform, or with tags, fused parts or gaps limits assumed): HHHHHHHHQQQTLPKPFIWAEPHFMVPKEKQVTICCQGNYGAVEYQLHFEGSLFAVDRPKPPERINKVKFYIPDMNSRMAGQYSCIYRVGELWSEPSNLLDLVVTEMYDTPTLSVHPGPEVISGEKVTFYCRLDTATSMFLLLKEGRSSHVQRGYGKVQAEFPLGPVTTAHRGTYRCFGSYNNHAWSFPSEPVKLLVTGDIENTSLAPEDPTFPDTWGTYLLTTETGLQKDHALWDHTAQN
# Experimental: Human NKp46 was diluted in two-fold to a serial concentration (400 nM-3.125 nM), then combined for 90 s at a flow rate of 50 μL/min, and dissociated for 500 s.
# (§3) At the end of each round of experiments, 3 M MgCl₂ solution was used to rinse at a flow rate of 30 μL/min for 30 s, and the captured antibody was removed along with the antigen to complete the regeneration of the chip. The raw data were analyzed using Biacore Insight Evaluation Software (version 3.0.12.15655) software and (1:1) Langmuir model was fit to the data. Compared with the anti-NKp46 humanized antibody and the corresponding chimeric antibody, the affinity to the human NKp46 antigen protein is mostly maintained.
# [7] = target: T4, Cynomolgus monkey NKp46 for immunization, screening, and testing (Kactus, NKP-CM146) (cynomolgus monkey, UniProt Q95JB9 22-254); assay: as above
# T4 construct: Bought protein; also called monkey NKp46 antigen protein; cynomolgus monkey NKp46 antigen
# T4 sequence (Q95JB9 other isoform, or with tags, fused parts or gaps limits assumed): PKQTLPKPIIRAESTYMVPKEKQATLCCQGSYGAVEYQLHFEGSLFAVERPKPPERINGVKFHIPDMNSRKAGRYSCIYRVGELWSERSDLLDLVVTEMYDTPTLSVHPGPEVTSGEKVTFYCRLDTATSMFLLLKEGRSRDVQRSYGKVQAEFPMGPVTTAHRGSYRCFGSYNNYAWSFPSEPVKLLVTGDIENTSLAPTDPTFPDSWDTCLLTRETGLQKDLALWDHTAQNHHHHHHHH
# Experimental: Cynomolgus monkey NKp46 was diluted in two-fold to a serial concentration (400 nM-3.125 nM), combined for 90 s at a flow rate of 50 μL/min and dissociated for 500 s.
# as §3
Molecule,Top MFI [1],Top MFI ([1]; record 2),Top MFI [2],Top MFI [3],"EC50 of NK cell activation (CD107a-positive NK cells, plate-coated antibody) [4] [nM]","Top mean fluorescence intensity (Top MFI), NK cell activation (CD107a) [4]",EC50 [1] [nM],EC50 [5] [nM],Top MFI [5],Kd [6] [nM],koff [6] [s⁻¹],kon [6] [M⁻¹ s⁻¹],Kd [7] [nM],koff [7] [s⁻¹],kon [7] [M⁻¹ s⁻¹]
"Anti-HEL human IgG1 LALA (Biointron, Cat. number B109802) (antibody)",223,98,118,86,–,–,–,–,–,–,–,–,–,–,–
B1,6710,–,–,–,0.85,21,0.389,0.345,3260,6.05,0.000307,50800,115,0.00589,51300
B2,6940,–,–,–,0.87,18.8,0.363,0.301,3540,2.05,0.000126,61300,–,–,–
B3,6830,–,–,–,1.21,19.6,0.328,0.297,3280,1.14,7.75e-05,67800,–,–,–
B4,6940,–,–,–,> 20,14.1,0.153,0.069,3800,22.1,0.00216,97700,23.4,0.0059,252000
B5,6650,–,–,–,10.7,18.1,0.145,0.074,3880,23.7,0.00266,112000,–,–,–
B6,5940,–,–,–,0.63,35.3,0.203,2.11,3270,10.9,0.000959,87800,7.69,0.000596,77500
B7,5610,–,–,–,0.75,39.1,0.274,2.76,3590,24.1,0.00154,63800,7.34,0.000563,76700
B8,5950,–,–,–,0.38,34.1,0.162,1.3,3340,5.89,0.00103,175000,–,–,–
B9,5760,–,–,–,0.4,37.6,0.205,1.53,3400,21.9,0.00204,93000,–,–,–
